Data as given in patent publication US20130115213A1.

Columns and labels:
[1] = target: human CD3 (TCR/CD3 complex) on the cell surface (human) (UniProt P07766); experiment: cell-based or functional assay
[2] = target: human CD3 (TCR/CD3 complex) on the cell surface (human) (UniProt P07766); experiment: flow cytometry on CD3+ Jurkat cells, Lineweaver-Burk fit
[3] = target: human CD3 (TCR/CD3 complex) on the cell surface (human) (UniProt P07766); experiment: cell surface retention on CD3+ Jurkat cells at 37 C; ln2/koff
[4] = target: human CD3 (TCR/CD3 complex) on the cell surface (human) (UniProt P07766); experiment: cell surface retention on CD3+ Jurkat cells at 37 C; reference scFv10
[5] = target: human CD3 (TCR/CD3 complex) on the cell surface (human) (UniProt P07766); experiment: cell surface retention on CD3+ Jurkat cells at 37 C, flow cytometry, one-phase exponential decay fit

Chain of UniProt P07766 (P07766 23-207, one chain of several): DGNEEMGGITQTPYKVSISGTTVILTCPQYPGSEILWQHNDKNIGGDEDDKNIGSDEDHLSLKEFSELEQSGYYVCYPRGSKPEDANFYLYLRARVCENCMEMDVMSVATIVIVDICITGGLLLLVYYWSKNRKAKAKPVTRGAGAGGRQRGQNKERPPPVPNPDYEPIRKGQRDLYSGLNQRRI

mAb OKT3 (Orthoclone OKT3, Cilag) (antibody)
CD3 modulation (fraction of TCR/CD3 complexes on the surface of T cells that is lost after antibody treatment), PBMC, 24 h [1]: > 90% | Kd [2]: 2.06 nM | t1/2 [3]: 2.59 min | fold longer t1/2 against scFv10 [4]: 2.5 fold | koff [5]: 0.00447 s⁻¹
